Results taken from article doi:10.1101/306035.

Key:
[1] = biological target: barrel-only DcaP lacking the first 59 residues (DcaP_(Trunc)) (Acinetobacter baumannii (strain AB307-0294)); experiment: SEC
[2] = biological target: full-length DcaP from Acinetobacter baumannii AB307-0294 (DcaPfl) (Acinetobacter baumannii (strain AB307-0294)); experiment: single channel electrophysiology in planar lipid bilayers
[3] = biological target: full-length DcaP from Acinetobacter baumannii AB307-0294 (DcaPfl) (Acinetobacter baumannii (strain AB307-0294)); experiment: SEC
[4] = biological target: seleno-methionine substituted DcaP_(DN40) with L280M and L282M (Acinetobacter baumannii (strain AB307-0294)); experiment: crystal structure
[5] = biological target: DcaP lacking 40 residues at the N-terminus of the mature protein (DcaP_(DN40)) (Acinetobacter baumannii (strain AB307-0294)); experiment: SEC

barrel-only DcaP lacking the first 59 residues (DcaP_(Trunc)) (domain or fragment)
stoichiometry N [1]: 3

full-length DcaP from Acinetobacter baumannii AB307-0294 (DcaPfl) (natural protein)
stoichiometry N [2]: 3 | stoichiometry N [3]: 3

seleno-methionine substituted DcaP_(DN40) with L280M and L282M (domain or fragment)
stoichiometry N [4]: 3

DcaP lacking 40 residues at the N-terminus of the mature protein (DcaP_(DN40)) (domain or fragment)
stoichiometry N [5]: 3
